# Measurements published in PMC4431499.
# pKd: −log10 of the molar value.
# Target: T1, PTK7 (on intact CCRF-CEM cells) (human (CCRF-CEM, T cell acute lymphoblastic leukemia)) (UniProt Q13308)
# T1 sequence: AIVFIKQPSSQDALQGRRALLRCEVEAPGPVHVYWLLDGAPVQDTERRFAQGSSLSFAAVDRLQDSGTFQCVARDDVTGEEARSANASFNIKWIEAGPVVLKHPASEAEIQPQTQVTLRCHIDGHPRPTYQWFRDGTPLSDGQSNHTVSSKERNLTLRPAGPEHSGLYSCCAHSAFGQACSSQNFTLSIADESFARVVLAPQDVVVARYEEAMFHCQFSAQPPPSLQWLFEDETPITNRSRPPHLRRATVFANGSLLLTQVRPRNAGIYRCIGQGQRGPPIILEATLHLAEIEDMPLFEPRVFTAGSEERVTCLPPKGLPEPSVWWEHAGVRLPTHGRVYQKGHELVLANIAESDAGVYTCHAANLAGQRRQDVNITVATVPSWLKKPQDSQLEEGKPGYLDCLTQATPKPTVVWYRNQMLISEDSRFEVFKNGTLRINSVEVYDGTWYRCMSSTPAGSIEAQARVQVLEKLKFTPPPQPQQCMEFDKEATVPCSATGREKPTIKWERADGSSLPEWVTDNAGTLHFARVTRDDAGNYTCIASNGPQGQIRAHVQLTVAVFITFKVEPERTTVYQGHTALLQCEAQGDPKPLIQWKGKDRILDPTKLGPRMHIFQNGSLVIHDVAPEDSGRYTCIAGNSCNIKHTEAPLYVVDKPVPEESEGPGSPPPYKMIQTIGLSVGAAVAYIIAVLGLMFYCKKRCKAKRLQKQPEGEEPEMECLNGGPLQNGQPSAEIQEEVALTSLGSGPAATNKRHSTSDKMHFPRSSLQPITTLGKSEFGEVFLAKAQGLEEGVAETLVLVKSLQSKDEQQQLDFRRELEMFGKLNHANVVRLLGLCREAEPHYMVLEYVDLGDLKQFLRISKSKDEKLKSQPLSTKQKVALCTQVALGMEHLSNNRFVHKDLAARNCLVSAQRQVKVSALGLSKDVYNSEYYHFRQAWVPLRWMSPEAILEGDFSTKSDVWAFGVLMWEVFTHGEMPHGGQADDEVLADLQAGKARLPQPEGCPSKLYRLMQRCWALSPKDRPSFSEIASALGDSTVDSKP
# Assay: flow cytometry, CCRF-CEM cells
# Conditions: apparent Kd on cells, 1x PBS, 0.55 mM MgCl2, pH 7.4, 200 uL, 1e5 cells, 30 min in the dark at room temperature (Methods; Results say on ice)
Sequence,pKd (multivalent),pKd
TATGTCTCGAGTATTTTTATCTAACTGCTGCGCCGCCGGGAAAATACTGTACGGTTAGA / GACCGATGGATGACCTGTCTGCCTAATGTGCGTCGTAAG / GACCGATGGATGACTTACGACGCACAAGGAGATCATGAG / GACCGATGGATGACTCATGATCTCCTTTAGGCAGACAGG / GAAGCCACTCTGACCTGTCTGCCTAATGTGCGTCGTAAG / GAAGCCACTCTGACTTACGACGCACAAGGAGATCATGAG / TCATCCATCGGTCCTCATGATCTCCTTTAGGCAGACAGG / GACACACTGAGGTCCTGTCTGCCTAATGTGCGTCGTAAG / GACACACTGAGGTCTTACGACGCACAAGGAGATCATGAG / TCAGAGTGGCTTCCTCATGATCTCCTTTAGGCAGACAGG / TACTCGAGACATACCTGTCTGCCTAATGTGCGTCGTAAG / TACTCGAGACATACTTACGACGCACAAGGAGATCATGAG / ACCTCAGTGTGTCCTCATGATCTCCTTTAGGCAGACAGG [G3-sgc8 DNA dendrimer],10.15,–
ATCTAACTGCTGCGCCGCCGGGAAAATACTGTACGGTTAGA [free sgc8],–,8.53
